Results: patent US20170174734A1, “DR6 Receptor Mediates the Leukemia Differentiation Activity of Angiocidin: A Potent Anti-Tumor Peptide” (Temple University-Of The Commonwealth System of Higher …, priority 2014, published 2017)

Key:
death receptor-6 (DR6) = target: T1, death receptor-6 (DR6) (Homo sapiens, UniProt O75509); assay: Binding strength of DR6 for angiocidin compared with previously reported binding proteins
T1 sequence (O75509 42-655): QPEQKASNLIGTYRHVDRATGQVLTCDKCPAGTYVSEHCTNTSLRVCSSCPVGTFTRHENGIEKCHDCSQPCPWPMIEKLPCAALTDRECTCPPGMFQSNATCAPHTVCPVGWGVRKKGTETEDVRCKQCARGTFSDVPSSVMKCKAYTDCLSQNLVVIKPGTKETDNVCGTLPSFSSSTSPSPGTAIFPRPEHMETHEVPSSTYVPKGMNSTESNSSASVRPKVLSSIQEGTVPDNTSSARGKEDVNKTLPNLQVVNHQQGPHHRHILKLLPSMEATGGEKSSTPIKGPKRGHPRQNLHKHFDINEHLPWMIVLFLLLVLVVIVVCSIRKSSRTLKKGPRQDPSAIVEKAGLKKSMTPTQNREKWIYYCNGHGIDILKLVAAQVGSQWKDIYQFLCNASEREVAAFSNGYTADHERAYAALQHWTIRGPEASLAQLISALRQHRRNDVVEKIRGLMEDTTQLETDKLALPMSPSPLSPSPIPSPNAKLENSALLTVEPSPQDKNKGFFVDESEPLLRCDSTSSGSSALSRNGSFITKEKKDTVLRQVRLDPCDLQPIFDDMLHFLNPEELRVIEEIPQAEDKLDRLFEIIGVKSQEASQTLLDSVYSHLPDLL

THP-I leukemia cells = assay: Blocking DR6 on THP-I leukemia cells: effect on the differentiating activity of angiocidin; format: cell-based; settings: mediated by DR6
From the text: Additionally, the DR6 binding domain of angiocidin is located in a 5 amino acid sequence (ALKHR; SEQ ID NO: 1) present near the N-terminal domain of angiocidin. Accordingly, the 5 mer (ALKHR; SEQ ID NO: 1) is a potentially non-toxic alternative treatment of AML

THP-1 cells [1] = assay: Binding of Alexa Fluor 488 labeled angiocidin to THP-1 cells, flow cytometry; settings: 2.5 μg/ml Angio-488 plus 10 μg/ml competitor, 30 min at 37°, serum-free media
Description: Experiments were performed to evaluate the interaction between DR-6 and angiocidin. […] Briefly, THP-1 cells were plated in 6 well dishes in serum-free media. Cells were untreated or treated for 30 min at 37° with either 2.5 μg/ml of Angiocidin labeled with Alexa Fluor 488 (Angio-488), Angio-448+10 μg/ml control rabbit IgG, Angio-488+10 μg/ml rabbit Anti-DR6 IgG, Angio-488+10 μg/ml unlabeled Angiocidin. Cells were washed twice in PBS and the percent positive Angio-488 measured by flow cytometry.

[2] = target: T2, DR6 extracellular domain-FC chimera (Homo sapiens, UniProt O75509); assay: ELISA binding of biotinylated angiocidin to plate-coated DR6 extracellular-Fc chimeric recombinant protein
T2 construct: wells of a microtiter plate were coated with 100 ng of a DR6 extracellular-Fc chimeric recombinant protein overnight
T2 sequence (O75509 42-349 limits assumed): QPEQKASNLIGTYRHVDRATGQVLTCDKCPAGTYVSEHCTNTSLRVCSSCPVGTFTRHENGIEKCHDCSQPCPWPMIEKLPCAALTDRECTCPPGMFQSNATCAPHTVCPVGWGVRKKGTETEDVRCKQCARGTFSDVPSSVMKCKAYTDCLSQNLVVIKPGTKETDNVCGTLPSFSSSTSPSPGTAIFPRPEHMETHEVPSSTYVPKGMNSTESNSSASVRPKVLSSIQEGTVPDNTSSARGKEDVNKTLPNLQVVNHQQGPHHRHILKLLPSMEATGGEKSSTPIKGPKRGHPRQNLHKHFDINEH
Description: (§1) The next experiment was performed to characterize the binding of DR6 with angiocidin. Briefly, wells of a microtiter plate were coated with 100 ng of a DR6 extracellular-Fc chimeric recombinant protein overnight. Wells were then washed in PBS and blocked with 1% BSA. Blocked wells were incubated with shaking with 200 μl of PBS containing various concentrations of biotinylated angiocidin for one hour. Wells were than washed and incubated with shaking with a 1:10,000 dilution of a 1 mg/ml solution of streptavidin-HRP in PBS. Wells were washed 3 times in PBS and bound streptavidin HRP was detected by incubation of the wells with 100 μl of 3,3′,5,5′-tetramethylbenzidine (TMB) with shaking for 5 min. Reactions were stopped by the addition of 50 μl of 1 M HCl and the color read in an ELISA reader at 450 nm.
(§2) The next experiment was performed to further characterize the binding between DR6 and angiocidin. It was observed that the binding of angiocidin to DR6 was blocked with anti-DR6 IgG, 5 mer peptide, and unlabeled angiocidin. Wells contained either 1 μg/ml of biotinylated angiocidin alone or 50 μg/ml 5 mer, 10 μg/ml of anti-DR6 IgG or 50 μg/ml unlabeled angiocidin.

THP-1 cells [3] = assay: Differentiation marker expression (CD14, CD54, CD36) in THP-1 cells, flow cytometry; format: cell-based
Description: FIG. 10 is an image showing the comparison between angiocidin, the 5 mer, and a 20 mer (F86-H105) […]; SEQ ID NO: 2 on the expression of CD14 and CD54. Briefly, THP-1 cells were grown in the presence of various concentrations of peptide overnight and then the cells were assayed by flow cytometry for expression of CD14 and CD54.
FIG. 11 is an image showing the comparison between the 20 mer, 5 mer and angiocidin on the expression of CD14 and CD54 up-regulation in THP-1 cells and two primary leukemia cells. Cells were treated with peptide at 10 ug/ml for 12 hours and CD14 and CD54 were measured by flow cytometry.
THP-1 cells were cultured in RPMI media for 24 hours containing no peptides or angiocidin or 2, 10 μg/ml of either angiocidin, 5 mer, peptide or a control peptide, r5 mer having the reverse sequence of the 5 mer. Marker expression was measured by flow cytometry.

[4] = system: three different leukemia cell lines; assay: Cytokine upregulation in three leukemia cell lines; format: cell-based
Description: Experiments were also performed comparing the leukemia cell differentiating activity of the 5 mer, the 20 mer and angiocidin.

[5] = target: T3, DR6 in whole extracts of THP-1 cells (Homo sapiens, UniProt O75509); assay: Blot overlay of biotinylated angiocidin on SDS extracts of THP-1 cells; format: binding; settings: 0.1 mg/ml biotinylated angiocidin, one hour
T3 construct: SDS detergent extracts of THP-1 cells were separated on SDS-PAGE and blotted onto PVD membranes; endogenous in cells; host or cells: THP-1 cells
T3 sequence (O75509 42-655): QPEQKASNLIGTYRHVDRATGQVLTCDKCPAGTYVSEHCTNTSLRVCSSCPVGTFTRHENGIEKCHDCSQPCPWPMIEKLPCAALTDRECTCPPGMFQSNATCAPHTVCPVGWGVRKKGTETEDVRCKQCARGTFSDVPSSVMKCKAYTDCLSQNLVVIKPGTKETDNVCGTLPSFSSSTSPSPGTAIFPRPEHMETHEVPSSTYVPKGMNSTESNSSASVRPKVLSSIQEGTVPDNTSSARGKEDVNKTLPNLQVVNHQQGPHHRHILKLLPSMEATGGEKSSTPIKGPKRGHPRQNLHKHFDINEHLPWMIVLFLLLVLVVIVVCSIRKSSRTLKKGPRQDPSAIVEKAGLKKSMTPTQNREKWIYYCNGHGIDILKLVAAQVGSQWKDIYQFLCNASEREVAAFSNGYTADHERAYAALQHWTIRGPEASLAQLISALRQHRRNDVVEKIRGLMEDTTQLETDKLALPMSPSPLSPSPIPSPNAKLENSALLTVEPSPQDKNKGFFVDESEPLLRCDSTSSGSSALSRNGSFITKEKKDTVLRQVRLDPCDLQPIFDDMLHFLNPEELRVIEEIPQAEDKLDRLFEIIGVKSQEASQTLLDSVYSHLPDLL
Description: Briefly, SDS detergent extracts of THP-1 cells were separated on SDS-PAGE and blotted onto PVD membranes. Membranes were washed in tris-buffered saline containing 0.1% Tween 20 detergent (TBS-T) and 1% BSA and incubated with 0.1 mg/ml of biotinylated angiocidin in the presence or absence of 10 μg/ml rabbit Anti-DR6 antibody. After incubation for one hour membranes were washed in TBS-T and incubated with 1:10,000 dilution of a 1 mg/ml solution of streptavidin HRP in PBS for 30 min. Membranes were then washed, treated with a chemiluminescent substrate for HRP and developed for chemiluminescence using X-ray film. In the panel on the right, recombinant DR6-Fc was used as the positive control.

[6] = target: T4, DR6 extracellular-Fc chimeric recombinant protein (UniProt O75509 42-349, limits assumed); assay: not stated (opening statement of Example 1)
T4 construct: extracellular domain; also called DR6 extracellular domain-FC chimera; DR6-Fc; not shown: Fc part
T4 sequence (looked up): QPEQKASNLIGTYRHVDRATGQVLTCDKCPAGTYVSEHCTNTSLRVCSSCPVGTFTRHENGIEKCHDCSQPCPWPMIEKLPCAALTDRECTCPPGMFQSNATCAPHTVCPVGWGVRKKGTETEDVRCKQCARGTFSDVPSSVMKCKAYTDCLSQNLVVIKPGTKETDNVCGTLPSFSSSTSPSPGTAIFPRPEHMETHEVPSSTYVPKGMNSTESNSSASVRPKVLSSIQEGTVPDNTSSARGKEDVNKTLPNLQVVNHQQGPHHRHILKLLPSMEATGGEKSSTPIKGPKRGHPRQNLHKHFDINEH

[7] = target: T4, DR6 extracellular-Fc chimeric …; assay: competition ELISA on coated DR6 extracellular domain-Fc, 50 ug/ml 5 mer against 1 ug/ml biotinylated angiocidin
Description: as §1, with “nm. It was observed that angiocidin binds the extracellular domain of DR6 (DR6 extracellular domain-FC chimera) in vitro (FIG. 2).” for “nm.”
as §2

THP-1 cells [8] = assay: Angiocidin-mediated up-regulation of CD14 in THP-1 cells, flow cytometry; format: cell-based; settings: 2.5 μg/ml Angiocidin plus 10 μg/ml rabbit anti-DR6 IgG or 0.10 μg/ml DR6-Fc, 24 hours, 1% fetal calf serum
Description: THP-1 cells were grown for 24 hours in RPMI containing 1% fetal calf serum (NT) or containing the following: 2.5 μg/ml Angiocidin, 0.10 μg/ml DR6-Fc, 2.5 μg/ml Angiocidin plus 0.10 μg/ml, DR6-Fc, 10 μg/ml rabbit IgG, 2.5 μg/ml Angiocidin plus 10 μg/ml rabbit IgG, 10 μg/ml rabbit anti-DR6 IgG, 2.5 μg/ml Angiocidin plus 10 μg/ml rabbit anti-DR6 IgG. Percent CD14 positive cells were measured by flow cytometry.

## angiocidin: protein originally isolated from lung carcinoma, receptor for thrombospondin-1, inhibitor of angiogenesis and tumor cell proliferation
Death receptor-6 (DR6)
  Binding strength of DR6 for angiocidin relative to other reported binding proteins and peptides: more than 100 times
THP-I leukemia cells
  Differentiating activity on THP-I leukemia cells: transforms THP-I leukemia cells into normal macrophage-like cells
THP-1 cells [1]
  Inhibition of binding of Angio-488 to THP-1 cells (percent positive Angio-488): competed with the binding of Angio-488
[2]; 100 ng DR6-Fc coated, various concentrations, one hour, read at 450 nm
  Binding of biotinylated angiocidin to the extracellular domain of DR6: binds the extracellular domain of DR6
[2]; 1 μg/ml biotinylated angiocidin, 50 μg/ml 5 mer, 10 μg/ml anti-DR6 IgG or 50 μg/ml unlabeled angiocidin
  Blocking of binding of biotinylated angiocidin to DR6: blocked
THP-1 cells [3]; FIGS. 8-11
  Leukemia cell differentiating activity, comparison of 5 mer, 20 mer and angiocidin: nearly identical leukemia cell differentiating activities
  Upregulation of CD54 in THP-1 leukemia cells: upregulate CD54
THP-1 cells [3]; after 24 hours incubation, FIG. 8
  Upregulation of CD54 in THP-1 cells: upregulate CD54
[4]
  Upregulation of cytokine panel: upregulate a similar panel of cytokines
[5]
  Binding of angiocidin to DR6 in whole extracts of THP-1 cells: binds to DR6 in whole extracts of THP-1 cells

B1: Angiocidin (ligand, UniProt P55036 1-377, looked up)
chain: MVLESTMVCVDNSEYMRNGDFLPTRLQAQQDAVNIVCHSKTRSNPENNVGLITLANDCEVLTTLTPDTGRILSKLHTVQPKGKITFCTGIRVAHLALKHRQGKNHKMRIIAFVGSPVEDNEKDLVKLAKRLKKEKVNVDIINFGEEEVNTEKLTAFVNTLNGKDGTGSHLVTVPPGPSLADALISSPILAGEGGAMLGLGASDFEFGVDPSADPELALALRVSMEEQRQRQEEEARRAAAASAAEAGIATTGTEDSDDALLKMTISQQEFGRTGLPDLSSMTEEEQIAYAMQMSLQGAEFGQAESADIDASSAMDTSEPAKEEDDYDVMQDPEFLQSVLENLPGVDPNNEAIRNAMGSLASQATKDGKKDKKEEDKK
modifications: Alexa Fluor 488 label (flow cytometry) or biotin label (ELISA, blot); sites not stated; also used unlabeled as competitor
notes: Labelled and unlabelled preparations are kept as one molecule
[6]
  fold stronger binding than the other binding proteins and peptides previously reported for angiocidin: > 100 times

B2: 5 mer (ALKHR peptide) (peptide)
peptide: ALKHR
notes: Five-residue peptide from angiocidin; also called Angio-pep; 5 mer peptide
[7]
  binding result: binds

B3: DR6-Fc: DR6 extracellular-Fc chimeric recombinant protein (protein)
chain: QPEQKASNLIGTYRHVDRATGQVLTCDKCPAGTYVSEHCTNTSLRVCSSCPVGTFTRHENGIEKCHDCSQPCPWPMIEKLPCAALTDRECTCPPGMFQSNATCAPHTVCPVGWGVRKKGTETEDVRCKQCARGTFSDVPSSVMKCKAYTDCLSQNLVVIKPGTKETDNVCGTLPSFSSSTSPSPGTAIFPRPEHMETHEVPSSTYVPKGMNSTESNSSASVRPKVLSSIQEGTVPDNTSSARGKEDVNKTLPNLQVVNHQQGPHHRHILKLLPSMEATGGEKSSTPIKGPKRGHPRQNLHKHFDINEH
modifications: left off: a dimerising Fc or GST
notes: DR6 extracellular-Fc chimeric recombinant protein
THP-1 cells [8]
  Inhibition of angiocidin-mediated upregulation of CD14 (percent CD14 positive cells): inhibit the angiocidin-mediated upregulation of CD14
